From the DeepSol protein solubility set

Test: soluble on expression in E. coli; label from the status in PepcDB or PDB records

Soluble on expression in E. coli, not soluble:
MEGVKKIKNPSTVKDELLELMFRIYRSTNGKYPALEWVKRKPNPNDFDGFREVYEPFLKFRLSQEFDELYTYQKDNRIIGTIALVYKRIKEKGIWWVPEELMNEKVGLIEFFVVDPEFQGKGIGSTLLEFAVKRLRSLGKDPYVVTFPNLEAYSYYYMKKGFREIMRYKEFVILKFNHKKFQLEHHHHHH
MPIEATMSTSNESANLLVPSFLPRGEVLGWNLTSVVNPVTRRKEYTYTVCVQTVGAFQCTEQAGVVLVKCDGPCGNKLPTNHLIALGKCDHMLCKACFGIVKNPDGSYGCSNFYCWSEPRGNFRKEKANYNKVINKQICRARKFKQDGEDLQACSKSNLPKTPADLSDREMNSAKSSESDTSSSDGSSYQSTVDSYGLPKRF
MNDIPVQHNKNRCPSHPGDLLAEIIPATGKTKLEIAQMLGISRQHLYAILRAKKPISPSVSARLGKLFGDGAAVWLRMQAAYDAWHAEHETDVSQIPTLHVV
MKELIRKLTEAFGPSGREEEVRSIILEELEGHIDGHRIDGLGNLIVWKGSGEKKVILDAHIDEIGVVVTNVDDKGFLTIEPVGGVSPYMLLGKRIRFENGTIGVVGMEGETTEERQENVRKLSFDKLFIDIGANSREEAQKMCPIGSFGVYDSGFVEVSGKYVSKAMDDRIGCAVIVEVFKRIKPAVTLYGVFSVQEEVGLVGASVAGYGVPADEAIAIDVTDSADTPKAIKRHAMRLSGGPALKVKDRASISSKRILENLIEIAEKFDIKYQMEVLTFGGTNAMGYQRTREGIPSATVSIPTRYVHSPSEMIAPDDVEATVDLLIRYLGA
MSQPIQFESNIALINYPKQAAFGRTLPKNKIYEHSGANTRLKDLFIEQVELIVWRYKLAPETINLPARPGVPELQIFSIQLKTSELNLDVLHCIDGAVQFPIIFELSFDGRTKVIAAYKRPNESDASRWVLSSYFATAWLPSDSERAAIPLALDLGGLYEQVLHRLIPMPARPQESLADLVARVEMVAAKQREVEKAASRLAKEKQFNRKVEINAQLRQLKNELEELTGRENA
MAHHHHHHMRTPVVGAGVAPLEPAPLEASSAAGEDGGEAGVGDEGTDRERFSKMWMYCLQQMQGHEVGMLMDMMPPDIQELYSDKLSDEYLLDEHDNMDKGVHALRAAQKMVEELTSEQLFHIEEFLAGTDAFNAEANRCHGKAHHPRGDGDNLEEEEEAGGDDDEDLFMHRDEGMGSDEEEWLLEQMIAAGDKTSAAAK

Soluble on expression in E. coli, soluble:
ADDPIRMYFEPGHYTVMENCGEFEVRVVRRGDISTYASVEYETQDGTASAGTDFVGRKGLLSFPPGVDEQRFRIEVIDDDVFEEDECFYIRLFNPSEGVKLAVPMIATVMILDDDHAGIFAFTDSVFEITESVGRFE
MSLSGRYNMNIILGATGQVGSMLVDNLLGKGQPVRAVVRDGLKAQGLKNKGVEVKIADYLDVEALKKAFQGGSSVFLLTPENPESENFINEIQRIMSNYREAVLSSGISKIVGLSSMGAQHKSGTGNLMASYMLEHAFSDLEIEQVFVRPAYYFSNWLGYLELVREYGILPTFFPPELELPMIAPPDVAGFLSDVMTCKTQQERIYEISGPHDYSSSDIAKIFGDVLNKNVTLQQVLPEEWENTLIQAGFSKDGTRNLMLMTKAVIDGKTKNETTNRLRFSTNFKNYLQSVILNMSEGHHHHHH
MDRVLPFRFAEEEGVFWLLDQRRLPQEEVYVPVRTAREMAQAIRDMVVRGAPAIGVSAAFGMVLAHLAGEDLEEADRRLRASRPTAVNLFHALDRMRPFWGDLAGSLLEARRIWREVEETEAAISRHGAQVLWGQVLTHCNTGPLATGGYGTALGAIVEAYRLGRVRHVWVDETRPYLQGARLTAYELQKAGVPATLITDGMAGWLMARGAVDAVVVGVDRMALNGDFANKVGTYALAVLAHHHGIPFYAALPLSSVDPRLASGEGIPIEERSPEEVVAFRGVRIAPEGFPAYHPAFDVTPHRYLTGIITEKGVLYPPFAEGLRRALGLD
MGSSHHHHHHGGFSQSCLPNWIMHGKSCYLFSFSGNSWYGSKRHCSQLGAHLLKIDNSKEFEFIESQTSSHRINAFWIGLSRNQSEGPWFWEDGSAFFPNSFQVRNAVPQESLLHNCVWIHGSEVYNQICNTSSYSICEKEL
